B1: 3BP-3731 (peptide)
peptide: Desaminotyrosyl-CE[dP]DWLTWSC-NH2
modifications: linker 1-10 via 3MeBn
notes: also called 4OHPhp-[Cys(3MeBn)-Glu-pro-Asp-Trp-Leu-Thr-Trp-Ser-Cys]-NH2
B2: 3BP-3063 (peptide)
peptide: Ac-VY[Pen]EGDWLTWQC-NH2
modifications: linker 3-12 via mXylylene
SMILES: CC(=O)N[C@H](C(=O)N[C@@H](Cc1ccc(O)cc1)C(=O)N[C@@H]1C(=O)N[C@@H](CCC(=O)O)C(=O)NCC(=O)N[C@@H](CC(=O)O)C(=O)N[C@@H](Cc2c[nH]c3ccccc23)C(=O)N[C@@H](CC(C)C)C(=O)N[C@@H]([C@@H](C)O)C(=O)N[C@@H](Cc2c[nH]c3ccccc23)C(=O)N[C@@H](CCC(N)=O)C(=O)N[C@H](C(N)=O)CSCc2cccc(c2)CSC1(C)C)C(C)C
B3: 3BP-3328 (peptide)
peptide: VYCEGDWLTWQC-NH2
modifications: linker 3-12 via mXylylene; not fully specified (N-terminus); also: indium complexed by DOTA
B4: 3BP-3043 (peptide)
peptide: Ac-[dV]YCEGDWLTWQC-NH2
modifications: linker 3-12 via mXylylene
SMILES: CC(=O)N[C@@H](C(=O)N[C@@H](Cc1ccc(O)cc1)C(=O)N[C@H]1CSCc2cccc(c2)CSC[C@@H](C(N)=O)NC(=O)[C@H](CCC(N)=O)NC(=O)[C@H](Cc2c[nH]c3ccccc23)NC(=O)[C@H]([C@@H](C)O)NC(=O)[C@H](CC(C)C)NC(=O)[C@H](Cc2c[nH]c3ccccc23)NC(=O)[C@H](CC(=O)O)NC(=O)CNC(=O)[C@H](CCC(=O)O)NC1=O)C(C)C
B5: 3BP-3741 (peptide)
peptide: Isovaleryl-RCE[dP]DWLTWE([Apr-AEEA-DOTA])C-NH2
modifications: linker 2-11 via 3MeBn; reading uncertain
notes: also called Iva-Arg-[Cys(3MeBn)-Glu-pro-Asp-Trp-Leu-Thr-Trp-Glu(NH-Apr-O2Oc-DOTA′)-Cys]-NH2
B6: 3BP-3871 (peptide)
peptide: Isovaleryl-DCE[dP]DWLTWE([Apr-AEEA-DOTA])C-NH2
modifications: linker 2-11 via mXylylene; reading uncertain
notes: also called Iva-Asp-[Cys(3MeBn)-Glu-pro-Asp-Trp-Leu-Thr-Trp-Glu(NH-Apr-O2Oc-DOTA′)-Cys]-NH2
B7: 3BP-3872 (peptide)
peptide: Isovaleryl-ECE[dP]DWLTWE([Apr-AEEA-DOTA])C-NH2
modifications: linker 2-11 via mXylylene; reading uncertain
notes: also called Iva-Glu-[Cys(3MeBn)-Glu-pro-Asp-Trp-Leu-Thr-Trp-Glu(NH-Apr-O2Oc-DOTA′)-Cys]-NH2
B8: 3BP-3053 (peptide)
peptide: Ac-VYCEGAWLTWQC-NH2
modifications: linker 3-12 via mXylylene
SMILES: CC(=O)N[C@H](C(=O)N[C@@H](Cc1ccc(O)cc1)C(=O)N[C@H]1CSCc2cccc(c2)CSC[C@@H](C(N)=O)NC(=O)[C@H](CCC(N)=O)NC(=O)[C@H](Cc2c[nH]c3ccccc23)NC(=O)[C@H]([C@@H](C)O)NC(=O)[C@H](CC(C)C)NC(=O)[C@H](Cc2c[nH]c3ccccc23)NC(=O)[C@H](C)NC(=O)CNC(=O)[C@H](CCC(=O)O)NC1=O)C(C)C
B9: 3BP-3278 (peptide)
peptide: {DOTA-Ttds″}-VYCE[Sar]DWLTWAC-NH2
modifications: linker 3-12 via mXylylene; not fully specified
notes: also called DOTA-Ttds-Val-Tyr-[Cys(3MeBn)-Glu-Nmg-Asp-Trp-Leu-Thr-Trp-Ala-Cys]-NH2
B10: 3BP-3056 (peptide)
peptide: Ac-VYCEGDWLAWQC-NH2
modifications: linker 3-12 via mXylylene
SMILES: CC(=O)N[C@H](C(=O)N[C@@H](Cc1ccc(O)cc1)C(=O)N[C@H]1CSCc2cccc(c2)CSC[C@@H](C(N)=O)NC(=O)[C@H](CCC(N)=O)NC(=O)[C@H](Cc2c[nH]c3ccccc23)NC(=O)[C@H](C)NC(=O)[C@H](CC(C)C)NC(=O)[C@H](Cc2c[nH]c3ccccc23)NC(=O)[C@H](CC(=O)O)NC(=O)CNC(=O)[C@H](CCC(=O)O)NC1=O)C(C)C
B11: 3BP-2949 (peptide)
peptide: Ac-VYCEGDWLTWQC[Ttds(4)][dK](DOTA)-NH2
modifications: linker 3-12 via mXylylene
SMILES: CC(=O)N[C@H](C(=O)N[C@@H](Cc1ccc(O)cc1)C(=O)N[C@H]1CSCc2cccc(c2)CSC[C@@H](C(=O)NCCCOCCOCCOCCCNC(=O)CCC(=O)N[C@H](CCCCNC(=O)CN2CCN(CC(=O)O)CCN(CC(=O)O)CCN(CC(=O)O)CC2)C(N)=O)NC(=O)[C@H](CCC(N)=O)NC(=O)[C@H](Cc2c[nH]c3ccccc23)NC(=O)[C@H]([C@@H](C)O)NC(=O)[C@H](CC(C)C)NC(=O)[C@H](Cc2c[nH]c3ccccc23)NC(=O)[C@H](CC(=O)O)NC(=O)CNC(=O)[C@H](CCC(=O)O)NC1=O)C(C)C
B12: 3BP-3572 (peptide)
peptide: Ac-V[Tic]CE[dP]DWLTWSC-NH2
modifications: linker 3-12 via mXylylene
SMILES: CC(=O)N[C@H](C(=O)N1Cc2ccccc2C[C@H]1C(=O)N[C@H]1CSCc2cccc(c2)CSC[C@@H](C(N)=O)NC(=O)[C@H](CO)NC(=O)[C@H](Cc2c[nH]c3ccccc23)NC(=O)[C@H]([C@@H](C)O)NC(=O)[C@H](CC(C)C)NC(=O)[C@H](Cc2c[nH]c3ccccc23)NC(=O)[C@H](CC(=O)O)NC(=O)[C@H]2CCCN2C(=O)[C@H](CCC(=O)O)NC1=O)C(C)C
notes: also called Ac-Val-Tic-[Cys(3MeBn)-Glu-pro-Asp-Trp-Leu-Thr-Trp-Ser-Cys]-NH2
B13: 3BP-3502 (peptide)
peptide: Ac-VYCE[dP]DW[Aib]TWAC-NH2
modifications: linker 3-12 via mXylylene
SMILES: CC(=O)N[C@H](C(=O)N[C@@H](Cc1ccc(O)cc1)C(=O)N[C@H]1CSCc2cccc(c2)CSC[C@@H](C(N)=O)NC(=O)[C@H](C)NC(=O)[C@H](Cc2c[nH]c3ccccc23)NC(=O)[C@H]([C@@H](C)O)NC(=O)C(C)(C)NC(=O)[C@H](Cc2c[nH]c3ccccc23)NC(=O)[C@H](CC(=O)O)NC(=O)[C@H]2CCCN2C(=O)[C@H](CCC(=O)O)NC1=O)C(C)C
notes: also called Ac-Val-Tyr-[Cys(3MeBn)-Glu-pro-Asp-Trp-Aib-Thr-Trp-Ala-Cys]-NH2
B14: 3BP-3049 (peptide)
peptide: Ac-VYCEGDWL[dT]WQC-NH2
modifications: linker 3-12 via mXylylene
SMILES: CC(=O)N[C@H](C(=O)N[C@@H](Cc1ccc(O)cc1)C(=O)N[C@H]1CSCc2cccc(c2)CSC[C@@H](C(N)=O)NC(=O)[C@H](CCC(N)=O)NC(=O)[C@H](Cc2c[nH]c3ccccc23)NC(=O)[C@@H]([C@H](C)O)NC(=O)[C@H](CC(C)C)NC(=O)[C@H](Cc2c[nH]c3ccccc23)NC(=O)[C@H](CC(=O)O)NC(=O)CNC(=O)[C@H](CCC(=O)O)NC1=O)C(C)C
notes: also called Ac-Val-Tyr-[Cys(3MeBn)-Glu-Gly-Asp-Trp-Leu-thr-Trp-Gln-Cys]-NH2
B15: 3BP-3061 (peptide)
peptide: Ac-VYCEG[Aib]WLTWQC-NH2
modifications: linker 3-12 via mXylylene
SMILES: CC(=O)N[C@H](C(=O)N[C@@H](Cc1ccc(O)cc1)C(=O)N[C@H]1CSCc2cccc(c2)CSC[C@@H](C(N)=O)NC(=O)[C@H](CCC(N)=O)NC(=O)[C@H](Cc2c[nH]c3ccccc23)NC(=O)[C@H]([C@@H](C)O)NC(=O)[C@H](CC(C)C)NC(=O)[C@H](Cc2c[nH]c3ccccc23)NC(=O)C(C)(C)NC(=O)CNC(=O)[C@H](CCC(=O)O)NC1=O)C(C)C
notes: also called Ac-Val-Tyr-[Cys(3MeBn)-Glu-Gly-Aib-Trp-Leu-Thr-Trp-Gln-Cys]-NH2
B16: 3BP-3312 (peptide)
peptide: Ac-VYCE[Sar]DWLT[Trp(5-Cl)]QC-NH2
modifications: linker 3-12 via mXylylene
SMILES: CC(=O)N[C@H](C(=O)N[C@@H](Cc1ccc(O)cc1)C(=O)N[C@H]1CSCc2cccc(c2)CSC[C@@H](C(N)=O)NC(=O)[C@H](CCC(N)=O)NC(=O)[C@H](Cc2c[nH]c3ccc(Cl)cc23)NC(=O)[C@H]([C@@H](C)O)NC(=O)[C@H](CC(C)C)NC(=O)[C@H](Cc2c[nH]c3ccccc23)NC(=O)[C@H](CC(=O)O)NC(=O)CN(C)C(=O)[C@H](CCC(=O)O)NC1=O)C(C)C
notes: also called Ac-Val-Tyr-[Cys(3MeBn)-Glu-Nmg-Asp-Trp-Leu-Thr-5Clw-Gln-Cys]-NH2
B17: 3BP-3315 (peptide)
peptide: Ac-VYCE[Sar]DWLT[Bta]QC-NH2
modifications: linker 3-12 via mXylylene
SMILES: CC(=O)N[C@H](C(=O)N[C@@H](Cc1ccc(O)cc1)C(=O)N[C@H]1CSCc2cccc(c2)CSC[C@@H](C(N)=O)NC(=O)[C@H](CCC(N)=O)NC(=O)[C@H](Cc2csc3ccccc23)NC(=O)[C@H]([C@@H](C)O)NC(=O)[C@H](CC(C)C)NC(=O)[C@H](Cc2c[nH]c3ccccc23)NC(=O)[C@H](CC(=O)O)NC(=O)CN(C)C(=O)[C@H](CCC(=O)O)NC1=O)C(C)C
notes: also called Ac-Val-Tyr-[Cys(3MeBn)-Glu-Nmg-Asp-Trp-Leu-Thr-Bta-Gln-Cys]-NH2
B18: 3BP-3310 (peptide)
peptide: Ac-VYCE[Sar]D[Trp(5-OH)]LTWQC-NH2
modifications: linker 3-12 via mXylylene
SMILES: CC(=O)N[C@H](C(=O)N[C@@H](Cc1ccc(O)cc1)C(=O)N[C@H]1CSCc2cccc(c2)CSC[C@@H](C(N)=O)NC(=O)[C@H](CCC(N)=O)NC(=O)[C@H](Cc2c[nH]c3ccccc23)NC(=O)[C@H]([C@@H](C)O)NC(=O)[C@H](CC(C)C)NC(=O)[C@H](Cc2c[nH]c3ccc(O)cc23)NC(=O)[C@H](CC(=O)O)NC(=O)CN(C)C(=O)[C@H](CCC(=O)O)NC1=O)C(C)C
notes: also called Ac-Val-Tyr-[Cys(3MeBn)-Glu-Nmg-Asp-Hyw-Leu-Thr-Trp-Gln-Cys]-NH2

Starred links: 1 amine or outer side, 2 acyl side, 3 side chain; linkers in the order of their positions; H or OH if unused. Positions of bridges follow the written chain, without caps; N, C: chain ends. Non-standard residues stand in square brackets, D forms with d. Groups on a side chain read outwards from the residue. Primed or numbered codes have the meaning given here. No end group written: not given here. *: point of attachment. Ttds(4) = 1,13-diamino-4,7,10-trioxatridecan-succinamic acid spacer, O=C(CCC(=O)[*:2])NCCCOCCOCCOCCCN[*:1]; DOTA = O=C(O)CN1CCN(CC(=O)O)CCN(CC(=O)*)CCN(CC(=O)O)CC1; Trp(5-Cl) = N[C@@H](Cc1c[nH]c2ccc(Cl)cc12)C(=O)O; Trp(5-OH) = N[C@@H](Cc1c[nH]c2ccc(O)cc12)C(=O)O; Desaminotyrosyl = O=C(CCc1ccc(O)cc1)*; mXylylene = c1cc(C[*:1])cc(C[*:2])c1; Bta = N[C@@H](Cc1csc2ccccc12)C(=O)O; Tic = O=C(O)[C@@H]1Cc2ccccc2CN1; Pen = CC(C)(S)[C@H](N)C(=O)O; Isovaleryl = CC(C)CC(=O)*; Apr = not defined here; AEEA = NCCOCCOCC(=O)O; Aib = CC(C)(N)C(=O)O; Ttds″ = Ttds spacer; Sar = CNCC(=O)O

The target in the first test is T1, human carbonic anhydrase 9 (CAIX) (human, UniProt Q16790 38-459). The test is described as follows: FACS competition on HT-29 cells against tracer 3BP-2776; pIC50 category B = pIC50 7.1-8.0. The procedure: (§1) CAIX-expressing human HT-29 colorectal cancer cells (DSMZ, RRID: CVCL_0320) were cultured in McCoys's 5A modified medium (Biochrom, #F1015) including 10% fetal calf serum (FCS), 2 mM L-glutamine, 100 U/ml penicillin and 100 μg/mL streptomycin. Cells were detached with Accutase (Biolegend, #423201) and washed in FACS buffer (PBS including 1% FCS). Cells were diluted in FACS buffer to a final concentration of 500.000 cells per ml. 200 μL of the cell suspension were transferred to a u-shaped non-binding 96-well plate (Greiner) and cells were washed in ice-cold FACS buffer.
(§2) When biotinylated compounds were used an additional incubation step with 1 μg/mL APC-Streptavidin (Miltenyi; #130-106-791) in 50 μL FACS buffer for 30 minutes on ice was performed.
(§3) Cells were washed twice with ice-cold FACS buffer and analyzed in an Attune NxT flow cytometer (Thermo Fisher). Median fluorescence intensities (MFI) of the APC/Cy5-channel were calculated by Attune NxT software.
Turning to B1, the pIC50 is 7.1 to 8 pic50.
For B2, the pIC50 lay in the range of 7.1 to 8 pic50.
In turn, B3 gave a pIC50 of 7.1 to 8 pic50.
On the same count and under the same terms, then B4, with 7.1 to 8 pic50; and B5, with 7.1 to 8 pic50.
The same measure, in the same setting: next, B6: 7.1 to 8 pic50; B7: 7.1 to 8 pic50; B8: 7.1 to 8 pic50.
B9 had a pIC50 of 7.1 to 8 pic50.
B10: the pIC50 is 7.1 to 8 pic50.
Molecule B11 displayed a pIC50 of 7.1 to 8 pic50.
B12: the pIC50 is 7.1 to 8 pic50.
Turning to B13, the pIC50 fell in the range of 7.1 to 8 pic50.

Another test concerns the target T1, human carbonic anhydrase 9 (CAIX). Kind of test: FACS competition on HT-29 cells against tracer 3BP-2776; pIC50 category C = pIC50 6.1-7.0. Here is the method: as §1, §2, §3
Regarding B14, the pIC50 is 6.1 to 7 pic50.
Same read-out and setting: then B15, with 6.1 to 7 pic50; and B16, with 6.1 to 7 pic50.
The same measure, in the same setting: then B17, with 6.1 to 7 pic50; and B18, with 6.1 to 7 pic50.

Source of the values: patent US20250339569A1 (3B PHARMACEUTICALS, published 2025).
